B1: HDV Ribozyme (parent)
chain: GGCCGGCAUGGUCCCAGCCUCCUCGCUGGCGCCGGCUGGGCAACAUUCCGAGGGGACCGUCCCCUCGGUAAUGGCGAAUGGGACCCA

Variants of: B1
Assay: self-cleavage, relative activity (ratio to wild type); higher = more cleavage; co-transcriptional

Point of comparison: U47C U69A, self-cleavage 0.762. Against it:
- A56U C85A — higher, 0.966
- U12G C64A — lower, 0.594
- C22G C44G — lower, 0.0437
- C3U G81C — lower, 0.0563
- A51C C58G — higher, 1.02
- G1C U47C — lower, 0.399
- G28U C36G — lower, 0.0665
- A70C G76A — higher, 0.96
- C3U C63U — lower, 0.645
- G10C U27G — higher, 0.798
- C19A G39U — lower, 0.0639
- G2U C61A — lower, 0.0913
- C33G G67A — lower, 0.089
- G38C A43U — lower, 0.116
- C3A G10U — lower, 0.23
- G31C A77C — lower, 0.225
- U27C G52U — higher, 1.01
- C61A C62A — higher, 0.904
- C18U A83U — lower, 0.243
- A70C G74C — lower, 0.262
- C33U G39U — lower, 0.58
- C62A G81A — lower, 0.332
- G1C A70C — lower, 0.185
- C58U G81U — lower, 0.289
- C15G C66A — lower, 0.665
- C33G G81C — lower, 0.151
- C7G C33G — lower, 0.237
- G31C G35A — lower, 0.16
- C64G A83G — lower, 0.708
- G67A G82U — lower, 0.348
- C15G G67C — lower, 0.415
- C7U G52U — lower, 0.562
- A16U G52U — higher, 0.863
- G59C U79A — higher, 0.987
- C41G C85A — lower, 0.617
- G38C C49U — lower, 0.277
- C32A G38A — lower, 0.0665
- G68U U69G — higher, 0.773
- C14G A71U — lower, 0.529
- C36U U60G — lower, 0.508
- G38A U72A — lower, 0.155
- U9C C62G — lower, 0.166
- A43U U65A — lower, 0.584
- G11A G31A — lower, 0.114
- U27A G55U — higher, 1.14
- G68C C86A — higher, 1.1
- C3G A45G — higher, 0.816
- C30G C48U — lower, 0.241
- C21U C36A — lower, 0.0923
- C49G A77U — lower, 0.604
- C19U C33U — lower, 0.234
- G28U G38C — lower, 0.0665
- G17A A87G — lower, 0.745
- C58A C84A — lower, 0.644
- C44G U69G — lower, 0.443
- C19U U65G — lower, 0.182
- C18A U72C — lower, 0.0437
- G11A C30A — lower, 0.106
- G54C G81C — lower, 0.196
- C48A A70G — higher, 1.11
- C4A G25C — lower, 0.181
- C66G G73A — lower, 0.434
- C3U G59U — higher, 0.943
- U37C G52U — higher, 0.997
- U23C G74A — lower, 0.217
- G31C C64G — lower, 0.292
- G11U C61U — lower, 0.443
- G52U A71U — higher, 0.781
- G50U G74U — lower, 0.427
- A42G C63U — lower, 0.633
- G76A G82A — lower, 0.35
- C18A C22G — lower, 0.0811
- G1C G25U — lower, 0.0665
- C24G C30A — lower, 0.0898
- G17U U37G — lower, 0.0831
- G11A C85U — higher, 0.787
- U37A C63A — lower, 0.116
- G31A G39U — lower, 0.0898
- C18G U72G — lower, 0
- A56C G80C — lower, 0.189
- G11C C24A — lower, 0.0898
- A8U G29U — lower, 0.0437
- G38U U46G — lower, 0.0755
- G29U G67A — lower, 0.12
- G17C C30G — lower, 0.684
- A43G U79G — lower, 0.199
- G10A C49U — higher, 0.831
- G28C G73C — lower, 0.148
- C33G C63A — lower, 0.0475
- G28C G81C — lower, 0.0875
- C15A U72A — lower, 0.107
- G50A G59U — higher, 1.18
- U65C G67U — lower, 0.627
- C57U A78U — lower, 0.119
- G55A G80C — lower, 0.138
- G34C C62A — lower, 0.162
- C3A C19A — lower, 0.0199
- G25C C32G — lower, 0.104
- U12A C21G — lower, 0.237
- U12A C21U — lower, 0.0831
- C44G G68A — lower, 0.677
- A8G G52U — higher, 0.849
- A43C G52C — lower, 0.386
- G28U G50U — lower, 0.163
- G34U G82C — lower, 0.138
- U72G C86U — lower, 0.705
- G39U G67U — lower, 0.727
- G54C C64U — higher, 0.82
- G6A G28C — lower, 0
- G6A A71C — lower, 0.269
- G6A A71U — lower, 0.554
- G53U A70U — lower, 0.739
- C61A G74U — lower, 0.63
- U20A G54U — lower, 0.0923
- C30G A78U — lower, 0.0678
- G81C C85G — lower, 0.128
- U46C C57U — lower, 0.705
- C26G C36G — lower, 0.237
- C36A A70C — lower, 0.128
- G25C C62A — lower, 0.18
- G11C G31C — lower, 0.0791
- C4A C13U — lower, 0.0739
- U20G G67U — lower, 0.467
- G6U C44A — lower, 0.213
- C19U U60A — lower, 0.192
- G28U A78C — lower, 0.0923
- G2U C84U — lower, 0.0604
- C18G C48A — lower, 0.123
- U79G G80A — lower, 0.249
- C18U G28A — lower, 0.0346
- G1C A83G — lower, 0.151
- G25A C85U — lower, 0.32
- G1A G55C — lower, 0.115
- U12C A78C — lower, 0.162
- A8U G81A — lower, 0.148
- G28A C62G — lower, 0.111
- G6A U23C — lower, 0.532
- U65A G80U — lower, 0.279
- A51C C62U — higher, 1.08
- C26A C44A — higher, 0.914
- G28C A83U — lower, 0.0437
- G29A G39A — lower, 0.0863
- G28U G67C — lower, 0.0545
- C41G C86A — higher, 1.14
- U9C G53A — higher, 1.01
- G5A C64A — lower, 0.198
- G55U G82U — lower, 0.426
- C26A G50U — higher, 0.958
- G2U C22A — lower, 0.035
- A8C G81U — lower, 0.201
- G17A C85G — higher, 0.814
- A16C C44A — lower, 0.289
- C26U G55C — higher, 0.954
- C24U A87U — lower, 0.696
- A56G C62G — lower, 0.731
- A56G C75A — lower, 0
- C7A G34C — lower, 0
- C14G C30A — lower, 0.0396
- U12G C49U — higher, 0.776
- G31U G67C — lower, 0.245
- C44U G74U — lower, 0.67
- A42C A43C — lower, 0
- G10A A42C — lower, 0.0875
- U20C C64G — lower, 0.128
- G54C G67C — lower, 0.627
- G40U G55A — lower, 0.722

Source: the RNAGym collection of RNA variant scans (doi:10.7554/elife.80360)
